From patent US20250049852A1 (SHANGHAI IASO BIOTECHNOLOGY, published 2025)

B1: CAR 2254 (Benchmark1), on CAR-T cells (other)
chain: GSQVQLVQSGAEVKKPGASVKVSCKASGYSFTGYTMNWVRQAPGQGLEWMGLINPYNSDTNYAQKLQGRVTMTTDTSTSTAYMELRSLRSDDTAVYYCARVALRVALDYWGQGTLVTVSSGGGGSGGGGSGGGGSDIQMTQSPSSLSASVGDRVTITCKASQNVATHVGWYQQKPGKAPKRLIYSASYRYSGVPSRFSGSGSGTEFTLTISNLQPEDFATYYCQQYNRYPYTFGQGTKLEIKSRFVPVFLPAKPTTTPAPRPPTPAPTIASQPLSLRPEACRPAAGGAVHTRGLDFACDIYIWAPLAGTCGVLLLSLVITLYCNHRNKRGRKKLLYIFKQPFMRPVQTTQEEDGCSCRFPEEEEGGCELRVKFSRSADAPAYQQGQNQLYNELNLGRREEYDVLDKRRGRDPEMGGKPRRKNPQEGLYNELQKDKMAEAYSEIGMKGERRRGKGHDGLYQGLSTATKDTYDALHMQALPPR
B2: GPRC5D CAR 2436 (#39), on CAR-T cells (other)
chain: EVQLLESGGGLVQPGGSLRLSCAASGFIFSSYGMGWVRQAPGKGLEWVSSISSSGDYTYYADSVKGRFTISRDNSKNTLYLQMNSLRAEDTAVYYCARMSFRRYDHWGQGTLVTVSSFVPVFLPAKPTTTPAPRPPTPAPTIASQPLSLRPEACRPAAGGAVHTRGLDFACDIYIWAPLAGTCGVLLLSLVITLYCNHRNKRGRKKLLYIFKQPFMRPVQTTQEEDGCSCRFPEEEEGGCELRVKFSRSADAPAYQQGQNQLYNELNLGRREEYDVLDKRRGRDPEMGGKPRRKNPQEGLYNELQKDKMAEAYSEIGMKGERRRGKGHDGLYQGLSTATKDTYDALHMQALPPR

What was measured:
Test in all cases: cell-based or functional assay
[1] = target: T1, human GPRC5D expressed on the cell surface (CHO-K1-GPRC5D cells; MM1S, U266, 8226, H929 cells) (human, UniProt Q9NZD1 1-345)
T1 sequence (Q9NZD1 whole entry): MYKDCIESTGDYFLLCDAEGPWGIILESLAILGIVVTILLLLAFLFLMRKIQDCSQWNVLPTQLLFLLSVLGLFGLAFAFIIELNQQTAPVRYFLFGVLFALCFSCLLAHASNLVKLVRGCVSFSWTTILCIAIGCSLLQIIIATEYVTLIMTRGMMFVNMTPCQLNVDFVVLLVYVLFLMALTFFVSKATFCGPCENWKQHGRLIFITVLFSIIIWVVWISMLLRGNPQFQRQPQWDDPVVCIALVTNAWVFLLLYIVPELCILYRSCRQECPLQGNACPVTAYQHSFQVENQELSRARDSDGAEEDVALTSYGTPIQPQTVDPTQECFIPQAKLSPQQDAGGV

[2] = target: T1, human GPRC5D expressed on the cell …; remark: listed apart in the source
[3] = target: T1, human GPRC5D expressed on the cell …; remark: listed apart in the source

Binder	CD107a+/CAR+CD8+% after co-incubation with 8226 (GPRC5D+) cells [1]	CD107a+/CAR+CD8+% after co-incubation with MM.1S (GPRC5D+) cells [1]	CD107a+/CAR+CD8+% after co-incubation with U266 (GPRC5D+) cells [1]	Proliferation fold, 1st round stimulation by target cells 8226 [2]	Proliferation fold, 2nd round stimulation by target cells 8226 [2]	Proliferation fold, 3rd round stimulation by target cells 8226 [2]	Proliferation fold, 4th round stimulation by target cells 8226 [2]	Proliferation fold, 5th round stimulation by target cells 8226 [2]	Proliferation fold, 6th round stimulation by target cells 8226 [2]	Proliferation fold, 7th round stimulation by target cells 8226 [2]	IFN-γ (IFN+/CAR+ %) after co-incubation with 8226-luc (GPRC5D+) cells [3]	IFN-γ (IFN+/CAR+ %) after co-incubation with H929-luc (GPRC5D+) cells [3]	IFN-γ (IFN+/CAR+ %) after co-incubation with MM1.s-luc (GPRC5D+) cells [3]	IFN-γ (IFN+/CAR+ %) after co-incubation with U266-luc (GPRC5D+) cells [3]	TNF-α (TNFα+/CAR+ %) after co-incubation with 8226-luc (GPRC5D+) cells [3]	TNF-α (TNFα+/CAR+ %) after co-incubation with H929-luc (GPRC5D+) cells [3]	TNF-α (TNFα+/CAR+ %) after co-incubation with MM1.s-luc (GPRC5D+) cells [3]	TNF-α (TNFα+/CAR+ %) after co-incubation with U266-luc (GPRC5D+) cells [3]
B1	45%	50.7%	9.68%	7.15 fold	41.9 fold	101 fold	172 fold	240 fold	321 fold	313 fold	25.1%	12.2%	31.1%	5.25%	12%	5.21%	17.7%	1.12%
B2	76.5%	63.5%	78.8%	10.1 fold	51.2 fold	146 fold	330 fold	595 fold	1160 fold	2050 fold	54.8%	57.6%	50.9%	49%	45%	51.6%	38.5%	42.5%
